This note sets out measurements from article PMC11168103.

The data set has as its target PHOX2B-20A (UniProt Q99453 98-314). Briefly: NMR.

Sequence of PHOX2B-20A (Q99453 98-314): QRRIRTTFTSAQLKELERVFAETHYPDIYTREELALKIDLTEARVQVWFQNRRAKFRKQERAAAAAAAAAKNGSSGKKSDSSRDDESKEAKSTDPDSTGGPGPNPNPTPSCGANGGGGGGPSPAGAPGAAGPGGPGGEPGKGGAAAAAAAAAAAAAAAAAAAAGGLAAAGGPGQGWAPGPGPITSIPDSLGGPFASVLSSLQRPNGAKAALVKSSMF

B1: ATTA2 (dsDNA)
DNA 1: TAGTGTGATTGAATTAAAGGGCAGG
DNA 2: CCTGCCCTTTAATTCAATCACACTA
Take B1: the binding result was “binds”.
